These results are taken from the supplement of paper PMC12042874.

± gives the uncertainty stated by the source.

The data set in a line: amyloid nucleation score (Sup35N fusion, yeast selection) (log enrichment); library NNK3; higher = more nucleation; inactive = no reads after selection. In a few lines: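 Nucleation score: DiMSum log enrichment of output over input reads, centred on the mode score of non-aggregating sequences. Only sequences with at least 100 input reads were kept. Reads came from Illumina sequencing of plasmid inserts before and after 7 days of growth at 30°C without adenine and uracil, in psi-negative yeast expressing Sup35N fused to peptides of 20 random codons after 24 hours of induction with 100 μM copper sulfate.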
For the substance SSTNPGIH, the amyloid nucleation score result was “inactive”. As for SSTSCTHGYVGMFGFPSVVS, the entry is “inactive”; as for SSVGTAFLYYRKYGICADG, “inactive”.

As for SSVSSMRRSHYETMMGRTVG, the amyloid nucleation score result is “inactive”. As for SSWNTTYMESSVPVGYLFRI, the entry is “inactive”; as for SSWPTTGRWE, “inactive”; as for SSYLNSVNSCLNDNVSHCCS, -0.343 ± 0.68. As for STLCSSCKGFDRMRYILVTR, the figure is 0.274 ± 0.38. On to STLGTRSRDFLMIFSNRSTE, for which the amyloid nucleation score result was “inactive”. As to STMDRSVKVVGPSSRPEGSV, the amyloid nucleation score entry is “inactive”. For the substance STPWHSRAISVALDRGDRWM, the amyloid nucleation score result was “inactive”. With STRTWQRF, the amyloid nucleation score is -0.014 ± 0.28. As for STSYSSAL, the entry is “inactive”. As for STTLWAIALGLYNTVYSLAN, the entry is “inactive”.

For the substance STWYSFDFRYFLDTIVCHMF, the amyloid nucleation score is 1.68 ± 0.11. Regarding SVAFSWGMWCDSLDYFGSVS, the amyloid nucleation score result was “inactive”. As for SVAKNCWCPKCGMSSTFDSI, the entry is “inactive”. Turning to SVARWSENGSTKSQYSP, the amyloid nucleation score result is “inactive”. On to SVDDTLSVNGSSRSCGRGCR, for which the amyloid nucleation score was -1.02 ± 1.5. For SVDSREMHSVCCKSLLFGFD, the amyloid nucleation score result was “inactive”.

SVELNTKLVRYEVLSRMYRA: the amyloid nucleation score result is “inactive”.

On to SVESECRDMFSFKGFCVCVK, for which the amyloid nucleation score result was “inactive”. As for SVFKIV, the entry is “inactive”; as for SVFSFCLNYSYNCIDRCKFN, “inactive”; as for SVGFRYHVLRKSKWCVYIVE, “inactive”.

Substance SVHWSINWTGLERVSRTQRL displayed an amyloid nucleation score of 0.523 ± 0.24.

In the case of SVIMGLTGDPGVALYVVTIM, the amyloid nucleation score entry was “inactive”. As for SVLCMGLHEIQYIRRFCRHW, the entry is “inactive”; as for SVLCWFSVR, “inactive”; as for SVLGVSTYSLCSSVNCIFRF, 2.74 ± 0.062. On to SVLHVLYCVGSECVYVSSSR, for which the amyloid nucleation score result is “inactive”. The substance SVLWLVCMDCHPQKSVSCD came in with an amyloid nucleation score of 0.863 ± 0.25. As for SVMYVQNFPYLLSYWRSFIG, the entry is “inactive”. SVNSVTWLFVRMQYFLFISC: the amyloid nucleation score entry is “inactive”. As for SVNWWTVLCVHCPGYKNLLI, the figure is 0.465 ± 0.26. For SVRSGLARVSRTGMG, the amyloid nucleation score entry is “inactive”. For the substance SVSLLAFRDFALPDHTKHMT, the amyloid nucleation score entry is “inactive”.

As for SVTSHDPMACHLLVCSV, the amyloid nucleation score result is “inactive”. As for SVTWSHFGNWVRGAGLVMHR, the figure is 0.259 ± 0.39; as for SVVIYWIWNCL, 3.09 ± 0.068; as for SVVMVRSVYIERSVEPPAPG, -0.607 ± 1.4. In the case of SVVPQDDILLNCGLEQAILG, the amyloid nucleation score result is “inactive”. As for SVVSCMWMWHLVRYKH, the figure is -0.509 ± 1.8.

The substance SVYNSYWKVQYRVVMS registered an amyloid nucleation score of 0.506 ± 0.21. As for SVYTGISLSKFHGSPLVRV, the figure is -0.408 ± 1.2; as for SWCQGNCGMLLAHRSYKRAY, -0.48 ± 0.55; as for SWDVGGLYCKINGPIMLSLD, “inactive”. As for SWFGLAIRSV, the entry is “inactive”. As for SWFGYSVIDAKYGDIRTPVK, the entry is “inactive”.

In the case of SWFSVMGNVFRMHFERRYSV, the amyloid nucleation score result was “inactive”. As to SWGPLINLRFQLLARCTPGL, the amyloid nucleation score entry was “inactive”. With SWHDINVAFADSFIDSKETC, the amyloid nucleation score entry was “inactive”. As for SWIRRRPAVRLDRRMPRLAF, the entry is “inactive”.

Regarding SWRKCPNLPSCKTIPNAWVL, the amyloid nucleation score result was “inactive”. In the case of SWSFDWFQSIVVGYLTCALA, the amyloid nucleation score result was “inactive”. As for SWTQVKRYSRSTIAILAFHT, the entry is “inactive”; as for SWVHVSTFWYVAFGFEKSAG, “inactive”; as for SWWVTGIALEHGSGLTVQVH, “inactive”. Turning to SYAANGVWRSYDLCYQCQKV, the amyloid nucleation score is -0.712 ± 1.1. As for SYCVRWNRIVDFVGSCRDHG, the figure is 1.11 ± 0.11; as for SYFNRYRCSSCHKPGYDHTW, “inactive”; as for SYGLKISLSHTFRSGRGMCG, “inactive”. As for SYKPLVMWLMSGVSASGLMC, the entry is “inactive”; as for SYLCSGWDRSWAGISCEHSE, “inactive”. Take SYLFYMHSSVLGSLMGQRDH: the amyloid nucleation score entry is “inactive”.

Consider SYLKRGKSVAIQLTYGS, for which the amyloid nucleation score came out at 0.405 ± 0.67.

Consider SYLSHNFNGECCTSLLMDNL, for which the amyloid nucleation score entry is “inactive”. SYMVKM: the amyloid nucleation score entry is “inactive”. Turning to SYMWPMSWQET, the amyloid nucleation score result is “inactive”. As for SYRIIEWCSLGKDNLDIRTG, the entry is “inactive”; as for SYRLCCSMIGFSTGGRSHVE, “inactive”; as for SYSADLKLMIWSCLNLVVFQ, “inactive”. As for SYSHRVVLRDTRTRQAKPRA, the amyloid nucleation score result is “inactive”. As for SYVFTR, the entry is “inactive”. As for SYVLLHHLLVMSWVRV, the entry is “inactive”; as for SYVNIFHDGIIMNSYVAWGH, “inactive”. As for SYVPSTMIRMIWIMAFHRGN, the figure is -0.024 ± 0.43; as for SYWSYSSTFSILLSDSFAIS, “inactive”; as for SYYYPNIVRIEHPHCTRHHA, “inactive”. In the case of TACRFVSSRRELRIEVLTWF, the amyloid nucleation score was -0.755 ± 1.8. As for TADDNVIRLAYFNVTTPLWF, the entry is “inactive”; as for TADYDYQAEVCCLVIMCVHN, “inactive”; as for TAEDYFMKVY, “inactive”. As for TAREMYSRKSRILRVILILS, the entry is “inactive”; as for TARHKHGLSLCDGVADLRGC, “inactive”. As for TARYIW, the entry is “inactive”; as for TASRFFCRWVYFRKGVSRCS, “inactive”; as for TASYSLVVVVENRKSCMVDN, “inactive”. In turn, TAVKTGGLLRVVALGNSLNA displayed an amyloid nucleation score of 0.399 ± 0.24. On to TAYVNSGVEIYGFSVTRNNS, for which the amyloid nucleation score came to 1.48 ± 0.11. As for TCFKM, the entry is “inactive”; as for TCHIRKWSEGWLKYMDCRSP, “inactive”; as for TCKWFFHHAIDCLRKRISME, “inactive”.

Substance TCLQVSTFFVQASKSLYLPI registered an amyloid nucleation score of 0.953 ± 0.11. As for TCMPRFSALYICSGTLDKKL, the entry is “inactive”; as for TCQRRYKKFS, -0.633 ± 0.52. As for TCRQNFCYCLDVIVQSCLSS, the entry is “inactive”; as for TCSVCMGQVTMVIRYVNSNC, “inactive”; as for TCVKMDRRSLAINALLSYYR, “inactive”. The substance TCWFGIQLSGL displayed an amyloid nucleation score of 0.651 ± 0.2. As for TDHCMVGGMYLEPVTIFFEG, the entry is “inactive”. As for TDLIIIRRPNFGKRGSGLGV, the entry is “inactive”; as for TDNAVMGSHCI, “inactive”. As for TDPGILYMSCIRVMLGLFWD, the entry is “inactive”. With TDRRKK, the amyloid nucleation score entry was “inactive”.

For TDTIKSVVYVSVLDGDYNSG, the amyloid nucleation score entry was “inactive”.

As to TDVRFDRLTCCNSLIKITRW, the amyloid nucleation score is 1.14 ± 0.082.

As for TDYPLLMLL, the amyloid nucleation score entry was “inactive”. As for TEFPQEEPGTSLAQFP, the figure is -0.69 ± 1.1; as for TEISSSMSFVHNFIYVCDR, “inactive”. TEYFWGNYRKLCCFWWWLGR: the amyloid nucleation score result is “inactive”. Regarding TEYRYVLSISCH, the amyloid nucleation score result was “inactive”. As for TFCLSYFHLL, the entry is “inactive”; as for TFEQVCVLL, “inactive”; as for TFFWLLCN, “inactive”. As for TFHLRDCKSF, the figure is 0.133 ± 1; as for TFSISSGSASYCVSSVDSS, “inactive”; as for TGEQECLKQMSISGNRIFVV, “inactive”. With TGFNASCCLLGSRCGAEKIL, the amyloid nucleation score came out at 0.604 ± 0.18. The substance TGFSVFYSVYRRQGH displayed an amyloid nucleation score of 0.912 ± 0.19. As for TGIMIVNYLVSELKPRTIST, the figure is 0.923 ± 0.11; as for TGISSNHKFMESIDSYVGTP, “inactive”. On to TGLIWLCESNRMLTVGSSLR, for which the amyloid nucleation score entry was “inactive”. As for TGLKYRLY, the entry is “inactive”; as for TGLLYFRFDCGSSIIRSRYY, 0.875 ± 0.1. As for TGNDGYCVCSVCYLRICVAN, the entry is “inactive”; as for TGQQE, “inactive”.

As to TGQYMYKWSGLRWSYGGTFA, the amyloid nucleation score entry was “inactive”. As for TGRYVNWRASLSFAYNRMMI, the entry is “inactive”. As for TGVRMWFVG, the entry is “inactive”.
